This is an account of results in the NTF2 design screens of Basanta et al. (2020).

The nature of the data set: protease stability score; higher = more stable; yeast display proteolysis, trypsin and chymotrypsin.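 Further: relative to predicted unfolded state with 0 unfolded-like and 1 meaning tenfold more protease.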
Sequence “DEHEELMRTLAEIVLRIFLTGDWDSFSKLADPNYRIDWNGRHTHGMHLAERVLREIHRQIRIDNVILQDMRIQGNKVHNHGTIDGNINGVHDKVQTHVHLILVDGRLKEVEFRHH” yielded a protease stability score of -0.231. Consider “DDTLRDLFHLIELFHKALKTGDEQKMRENLDPHAKFDWDGRDYVGMEEVVKYVVEARIESTFHIHSVRKIGNKLDVDGTFSLEVDYNGKKEDIHSRQHHFIYKVDGQWIIKRIIIK”, for which the protease stability score turned out to be 0.537. In the case of “DEHEELLEHIIRLWLKYIHTGDFRNWMKYADPNAKWRTENHEHHGREEIARDLHEFNKKLGMEFRIDLRHFEIQGDKVRMHTEYILHIGDYTERRETEVTVIIVDGKIKSIRLLVR” it was 1.67. In turn, “DHEDKLHEEAFRRWLHVFKTGNEDLIRRLVDPHVKLEVDGQDFHGREELLRFLIERIRNLGIKVSDVKVKHVDIQGDKLDIDVRFIVEFNGRRTEINEWLIMEKIDGRWVVQSIHIR” gave a protease stability score of 1.3. “DEMEETTERITRLIHHYHRTGDWRLLSDLFDPHAKSEVNGVRLHGWHEMREFFENEMRELGIENVRFRYHLHDYRIFDGRVDLDVRLEIRIGDKEDHMESHIHTEKVNGQWRLRTLSLN” came in with a protease stability score of 0.412. “DEEEKEMKEALHEQKRSHETGDERVLEELIDPNVRLDINGREHHGREEAIRLWHELGIDHFDIRDFRVVNGRAHIDGHMVINGQRVDVTLIVHKINGRWRQHHIVVR” registered a protease stability score of 0.04.

The sequence “HQEDRLVFALAKDWIDNLETGDEDKMLQRADPRRQLIIDGRTFHGWENTYENMKQIRIEHLEIRDMTVVDGRIHINTHSILIINGRRFETETSIRLVVVNGVIQDVDININ” registered a protease stability score of 0.081. For the sequence “DETEHHAREMAELLLHVILTGDEHLMERLIDPDVKLHSFFNGRQFHRIGMEELKRYLEEWRREIRLKDVRIRQFEVQGDKFRLDMEVEGNINGRDNVTKTELIIITVNGRLHEIDIRIE”, the protease stability score turned out to be 2.1.

Turning to “TEEEEQIKEMMEEMQHSYKTGDWRAISELLDPNVRMHIGDKEFHGREDLLRVFKHIRVKHLEIHHVRIIDGRAEVETTYTLVVDGVEHVHHTHIHSRKINGRWHIEEVYIH”, the protease stability score is 2.02. “SEERAKKVAKKLMEAFVKGNKDDAKDALQEDVQLHIAGTTYHGPKAVEKLIEFWQRVGVEVKVQEVRVKGNHVEIQTQVHLGDNTTTVRYKIQVEGDKVKKLQLNFSEEVFKQAKDG” yielded a protease stability score of 2. Sequence “DEKEEHLDELARLFWEVHHTGNEEVFEELFDPRMRLIFNGQQYIGMEKAVKIESRVKNITVRLETYRVINGRIEIHENWRQGEKEIKFEIRIVVIDGVAKEMERIFREK” showed a protease stability score of 1.09. The sequence “SEEERTAEKLMRDWLKNWMTGNEEIIKELADPNVKLLVGDKEMHGMEELSRFLKELRIHDSDVRDIRLKSINGVLHIESDGRLKGEFNGQHIDTRTVVRLDVHKFDGRWHLKSIEVEIR” displayed a protease stability score of 1.95. “DEDHEEVEKYLKLFMKISETGNEEDIKKMADPDTRVDIGDKRHHGMEEFLHFWSHWRIHSIDIKDIEVQGEKVIITGETDVTIDGRKLRMKIIIVALKVNGKWIHKSVKFE” returned a protease stability score of 1.37. In the case of “TEEDERAKHWAERWIRLLETGDFEILTELLDPNVRVEIDINGKKIELHGMETISEDLRRRLEELGFKHFHIRDMKSQGDKSRVRGEVEVNGKPVDVHIVLNIVDGKLKTFRFENK” it was 1.35; in that of “SELDHAAEHLYRLFYHLERTGDEETLMDNMDPNARNEQGEFEYHGREFIEWVSEHLGINVIRVKRVDLRVINGRMILDIDYRVHIGDKTIQRHIHVVINKVNGKWIVEKLRIEWR”, 0.79; in that of “DETREESYEFLWKLIHNWQTGNEDRLDELIDPHVRLVVGDKNHHGREELIELIREILERADHLRMRMRHFRVQGDKAEVDTRLQMEIGDKSIDTETHVRIIVVDGRVKYLEYEIK”, 0.459.

Consider “SEDERDMERFNRLVSHAMETGDEDTLNHLADPNVRVHIGDKDLHGREDYSRWLHELIRRVDYMEVHIHDERLQGDKAIVDSRIRLKFDGVETRIETILYLKKFDGRWRMTTFELK”, for which the protease stability score is 0.705. Take “SEEEEDLKTMSDFVLHLFETGDEDIFNHFADPDARLHIGDKIAHGREHFKRVFEDLMHRLGVDHIEIRRRSITIIGDKVHAHVDGLTVIGDKVHHVELRFVIVKYNGRWFLKRVEVHNR”: the protease stability score turned out to be 1.71.

“SEDEEEFRRWLEEMVRALITGDEDRLKELFDPHAQVHVNGKERHGRDELVKAFRETLEDFGVKHMRVTSSSVQGDYVIIHIEMHVDGKPIQTDIRVIIVNGKVHKFEVQLH”: the protease stability score amounted to 1.89. For “SEEEKIFEMAIKLMRHTLQTGDESTLHRLLDPHVRVVIGDKTYVGREATEFLLTRIDHIHDVEIHEVELINGRVNMHGIVDGTIGDKRVHVESNWVASKYDGRWHLKSISFH”, the protease stability score was determined as 1.29. In the case of “DEDHERTKLFSKLFLKWTHTGDWEKILENADPNVRMHIGDKNFHGMHEVWRFLHEHLEKLGADVHSLTDLKIEAYNGVVVVHVEGTENINGRDITSRLHLIVIKVDGRWIIREIRVTIS” it was 1.29; in that of “DEREEDAREAEEIILEDLRTGDWERISRNFDPNVRMHVGDKKYHGREDAIREIKRLMSDMGIKHHSITDSRLQGEWLFLHVEVHFNGRTHDVEIIMIKVNGKWVFKEVRIG”, 1.99; in that of “SEIHRDVEEFMKRFDRDLETGDEKILEKLVDPDVKTIVNGKIFHGRETFIKLMLTIFKEMRNEHVELQSLEVQGNKAHAETRVRLTIGDWTFYLRTELHLEKYDGRWRFHSVTIE”, 1.93. “DEDRKTVELAERLLKEMFDTGDEHTMRSLLDPNVRSNIGDWEFIGMDELSRWFEEVLKKLGVDHRSLKIKRSHTIGDKVILRSTLEFQQGDKTMKVDMRLVATKINGRWTVEEVEMK” returned a protease stability score of 0.81. Consider “DEREEELHHMLEVLEFAFHTGDFEKLSKMFDPHVRIDVNGQELHGWKHAHEHIEDLFRKVKNIRLEFRDIRFQGDKIDIDGIMIFNGVRHEVKIITVKVNGRWLWRSINIH”, for which the protease stability score was 2.33.

“EHLIEELREMTERIVETILTGDEKHLADLADPNTRSHTHIGDKHYRFHGMDLIYELLHQVKNMRLHLRHTDASFVGNKVYVRLHIDLIFNGRDIHFTIHIIIDKYNGKWFIHHIELIFN” yielded a protease stability score of 1.31. In the case of “SEIDHILKLLAELWIRLWLTGDEEIIEELADPNVRLDINGKDAHGWERLSEVLRLEIKEMRIDHHRLREIRVQGNKSEVDGRLRGTFNGKHREVDVHIEIEVVNGRFKRIRIEFR” it was 1.42.

In turn, “SERHDHAEHVLRLWEHFWKTGDETNLSRLLDPSVRWVIGDKVYHGMETVSHNLSRHYLRADHVEESVHRLNFQGNKVEMDGRIILNVNGVQIDKRSHIELISFNGKIKELDLHIT” yielded a protease stability score of 0.371. The sequence “SEDHELRKHLADRTYKWLATGNFEELMKLMDPNTRFTIGEFNDHGRKAIEWLWRELGVDHFHFREIRVQGDKIHMDTEFEFNGVKVRTHFRVIVIDGRVTSVIILTE” yielded a protease stability score of 1.34.

“DEHQKEIKEVVEMMRHAILTGDEETLERQMDPHAKIRINGVDYVGRRYLEILIRRVDHRRIHTRIRHVEIVDGRVITHLEERTVLHVGDKDIHVSHELEFVLLKIDGRWLVTEMIIQ” had a protease stability score of 1.23. Consider “DHQRDLLKEARERLLHSIETGDEELWRRLFDPETLLIAENHSSHGREARHDWKKRFDVIDHLEIRTRDVDMIGDKIYVEGKLDYITKYDGVTRNYTNTVHFIATKINGRWVIESVRFE”, for which the protease stability score worked out at 1.09. For “SEEDVLHHELARIYWRDFVTGDEDSLRRLMDPEAKVNFDGRENHGREFYEEILRLFLEKFRGVRFEEHRSRFIGEFTHIDVRMHIDGKTHSLKVLVTVVNGKVHSIHIQLR”, the protease stability score was 1.26.

Sequence “DESTKNAQEVIKMIKEIVETGDWRRHHQLVDPNARLHVHINGKDEESHGREEFTRVLMELWKEFGAKHVRFEDFELQGEKIHFHVKINVDGKDVKLLIVALKINGRWLMESVYVEFH” displayed a protease stability score of 1.19. “HESQEHDDRILDLFETLLRTGDWERLFQLADPHVRLRLHYGDKEIHQVGREEVVRMFLWWRERFGVDHFEVHEVRVVDGVNHIDGRLTVNGRNRRTEIVFIVVNGRIKEFEVRHR” had a protease stability score of 2.24. In the case of “DEDHESWERAYNIYLHALRTGDEERNHELADPRVLTHIDGVELHGREMMTRVMTELRIHEHRIHRVHIIGEKIDIDIEVRFRWNGKLVDTRTHEHRLKVDGKWLLTRFEVR” it was 0.76.

As for “TEEEHFIKHATELWLRLLRTGDEHELSKMIDPHARVLIGDKNIHGRELASKFLSEFAHQIDHVEIRIKEVRTVDGKVDSDTRLDMHVDGQDIHHETRIISLKVDGKWLLQSFHFD”, the protease stability score is 0.456. “DEEDERLHEFAKLFADLWFTGDEEELHDLIDPHAKLNVDVNGRILDSHGREEFVKVLRKLREHLGVDHVELKDMKVQGDKVIIHGVLIINGRRFDSTLWVYIFNGKIESMEVRMR” had a protease stability score of 1.69. For “SEEKEHHHQLARDILEMLRTGNEEIWHRLLDPHVKLNIDGKEYHGREDVRQMLRDHLEKIKGIKLHVTDVKDFDGKVYVHGRWHVGNFTVDILTIYTFIDGRVHTMSEETR”, the protease stability score came out at 1.41.

For the sequence “DEEEELAIHFWRLFLHLIITGDWERLTELMDPNVRIDINGKEIHGRELASEHLRKLMEHARFRDHHLEDVKIYDGVVEMHGRIDGRFDGKDVDTRMIVYTVKVNGKWLLKRVVHL”, the protease stability score was 2.32. In the case of “SEDQEVAEKDLEIYSRAITTGNEHELKHLLDPNYKLIVNGQEYHGWETLRHYWKHLRVESVEFEIRSFDSQGDKLHIDGIIILHGEVDGRHTELFEDVHIRAHKINGRWHNKEVNIR” it was 0.897.

As to “DEDEREAERSIREELEYTRTGDEDFIKRLADPHVKLNIDGQRHHGRETVVKIMVEARIKDLHIERLTVIDGRVHMRGRMEGNFNGRDTEVEVHIKLKKVNGQWHVRDFEIR”, the protease stability score stood at 1.14. Sequence “SEEEKIAEDLAREIEEDWLTGNEEYIMHLADPNVKSHINIDGKRIDTHGMEELTHWLSRYPNVRIEPKRMDVQGEKITLDFELNIGDKRVRVILYHIIINGRIKEIRIIIHHV” returned a protease stability score of 0.995. Take “SEDDDSAREILRILTEAWYTGNEDELIRLMDPNARSLFDGVEFHGRELVRLWKERVDHTHSIKVKLHSMRIIGNKLEVDGRLEQEGEINGRRFLIVVEVHLIILKVNGRWRMHSVEVR”: the protease stability score is 1.68.

Sequence “DEEEKAHEHMLRVLLHLERTGNEKALTEMADPNVRIDWNGKEDHGMEHLLRHLREIRIKNFELTDERHQGDKIELRGRLHGFIGDKHIILEVELVWRKVNGRWQLTSMHIK” registered a protease stability score of 1.45. For “SEDEELRQIAVEFILHILWTGDEELLYKYFDPHVRSDINGRRTHGRENMLRAIREMMRKIKGIQLTSLHITDIEIIGDYLNIDGHFRLNYDGKETDLSLKIDIFKINGKWSIHAISYR”, the protease stability score worked out at 2.08.

In turn, “SEEEEISKELARLWLHLFFTGNEEKLTELFDPNARLIVGDKQRHGRERVIKIFHEWLLELGIDYLDIHHIEFQGEKVHMNTKVRQGDFETRTEVNLIIVNGRIKEVRFDLR” displayed a protease stability score of 1.19.

As to “DEQEEKLERMYKLWLELHRTGDEEILTELIDPTARLEVGDKSFHGREILIEWFHRELKRIDHKEVRERHIEIQGEWLHAEIEVIIIVNGREIRITTELIIVTINGKIKSINIKIR”, the protease stability score was 2.23.
